Reference: patent US20100129346A1 (G2 INFLAMMATION, published 2010)
Where a chain is given by its changes, count along the chain named. No end group written: not given here. *: point of attachment. Biotin = O=C1N[C@H]2[C@H](CS[C@H]2CCCCC(=O)*)N1

Columns and labels:
[1] = target: T1, human C5aR (human, UniProt P21730 1-350); assay: displacement of 125I-C5a from hC5aR on hC5aR-transfected L1.2 cells
T1 construct: On human neutrophils, on hC5aR-transfected L1.2 cells or on neutrophils of hC5aR knock-in mice; also called hC5aR; C5a receptor
T1 chain: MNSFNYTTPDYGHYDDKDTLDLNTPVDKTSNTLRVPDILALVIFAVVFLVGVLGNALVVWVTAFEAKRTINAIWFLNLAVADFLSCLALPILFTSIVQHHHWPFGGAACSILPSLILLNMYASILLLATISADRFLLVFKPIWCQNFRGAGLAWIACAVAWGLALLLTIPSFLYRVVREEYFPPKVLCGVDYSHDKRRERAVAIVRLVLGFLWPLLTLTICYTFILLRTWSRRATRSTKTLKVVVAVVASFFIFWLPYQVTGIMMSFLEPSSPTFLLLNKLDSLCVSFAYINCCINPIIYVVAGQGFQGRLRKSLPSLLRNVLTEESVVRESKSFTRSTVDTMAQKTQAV

[2] = target: T2, Biotinylated Human C5aR Peptide (2nd loop), peptide 23 (human, N-terminal biotin); assay: SPR (BIACore), biotinylated peptide 23 on SA chip; experiment 3 (25 nM-0.78 nM, 5 min dissociation)
T2 construct: immobilised on a streptavidin sensor chip for BIACore; also called Biotinylated-Peptide 23; Biot-peptide
T2 peptide: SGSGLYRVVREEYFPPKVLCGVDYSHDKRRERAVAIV

[3] = target: T2, Biotinylated Human C5aR Peptide (2nd …); assay: SPR (BIACore), biotinylated peptide 23 on SA chip; experiment 2 (100 nM-0.78 nM, 20 min dissociation)
Experimental: (§1) Additional BIACore analyses were performed to compare binding affinities of antibodies 7F3 and 3C5 to peptide 23 under varying conditions. The conditions for these additional BIAcore experiments were as described above under “Experimental Details” with the following modifications: [0295] Experiment 2: Antibody concentrations included in kinetic analysis—100 nM-0.78 nM; 20 min dissociation. [0296] Experiment 3: Antibody concentrations included in kinetic analysis—7F3: 25 nM-0.78 nM,; 3C5: 6.25nM-0.78nM; 5 min dissociation. [0297] Experiment 4: Antibody concentrations included in kinetic analysis—7F3: 25 nM-1.56 nM,; 3C5: 6.25 nM-0.4 nM; 1 min association, 3 min dissociation.

[4] = target: T2, Biotinylated Human C5aR Peptide (2nd …); assay: SPR (BIACore), biotinylated peptide 23 on SA chip; experiment 1
[5] = target: T2, Biotinylated Human C5aR Peptide (2nd …); assay: SPR (BIACore), biotinylated peptide 23 on SA chip; experiment 4 (25 nM-1.56 nM, 1 min association, 3 min dissociation)
[6] = target: T1, human C5aR; assay: competition with 125I-C5a (0.4 nM) for binding to human neutrophils
[7] = target: T2, Biotinylated Human C5aR Peptide (2nd …); assay: SPR (BIACore 2000), biotinylated peptide 23 on SA chip, mAb as analyte
[8] = target: T1, human C5aR; assay: competitive 125I-C5a ligand binding to hC5aR on human neutrophils; blocked ligand human C5a; 3 experiments; the table's column has no unit, nM is that of the axis Log Conc (nM)
Experimental: (§2) Human neutrophils were washed and re-suspended in binding buffer (50 mM HEPES, pH7.5, 1 mM CaCl2, 5 mM MgCl2, and 0.5% BSA) at 1×10⁷/ml. For each binding reaction (in a final volume of 120 μl), 40 μl cell suspension (4×10⁵ cells) with an appropriate amount of anti-hC5aR mAb, isotype matched control mAb or unlabelled human C5a (SIGMA) was incubated at room temperature for 15 min. ¹²⁵I-labelled human C5a (Perkin Elmer) was added at a final concentration of 0.4 nM and the reactions were incubated at room temperature for 60 min. Cells were then collected and washed 3 times with binding buffer containing 150 mM NaCl. Cells were then transferred to Opti plates (Perkin Elmer) with MicroScint 20 scintillation fluid and radioactivity counted on TopCount (Packard). Each sample was assayed in triplicate.
(§3) Further competitive ligand binding studies were conducted to measure ¹²⁵I-C5a displacement from hC5aR on hC5aR-transfected L1.2 cells with 7F3 or 3C5.

[9] = target: T3, 12-mer peptide VREEYFPPKVLC of the human C5aR second extracellular loop (human); assay: peptide ELISA, biotinylated peptide on streptavidin-coated plates [b]
T3 construct: Parent peptide of the alanine scan; each mutant has one residue replaced by alanine
T3 peptide: Biotin-GSGSVREEYFPPKVLC
Experimental: Streptavidin-coated microtiter plates (NUNC) were coated with 10 μg/ml of peptide/well in a volume of 200 μl, and incubated at 4° C. overnight. Plates were washed three times with ELISA wash buffer (0.05% Tween 20 in PBS). MAbs were added at 2.5 μg/ml, and plates were incubated for 3 hrs at room temperature. HRP-conjugated rabbit anti-mouse IgG antibody diluted 1:1000 in ELISA wash buffer was used for detection. Plates were developed using TMB (3,3′,5,5′ tetramethyl benzidine, SIGMA) and read at […].

[10] = target: T1, human C5aR; assay: competition with 125I-C5a (0.4 nM) for binding to human neutrophils; human neutrophils
Experimental: as §2, §3

[11] = target: T1, human C5aR; assay: displacement of 125I-C5a from hC5aR on hC5aR-transfected L1.2 cells; hC5aR-transfected L1.2 cells
[12] = target: T2, Biotinylated Human C5aR Peptide (2nd …); assay: SPR (BIACore), biotinylated peptide 23 on SA chip; experiment 4 (6.25 nM-0.4 nM, 1 min association, 3 min dissociation)
Experimental: as §1

[13] = target: T2, Biotinylated Human C5aR Peptide (2nd …); assay: SPR (BIACore), biotinylated peptide 23 on SA chip; experiment 3 (6.25 nM-0.78 nM, 5 min dissociation)
Experimental: as §1

[14] = target: T2, Biotinylated Human C5aR Peptide (2nd …); assay: SPR (BIACore), biotinylated peptide 23 on SA chip; reference 7F3

B1: MAb 7F3 (antibody, V domains shown)
VH: QVQLQQSGPELVKPGASVKISCKASGYAFSNSWMNWVKQRPGKGLEWIGRIYPGDGDTKYNGKFKGKATLTADKSSSTAYMQLSSLTSEDSAVYFCARFLLISTVTAVDYWGQGTTLTVSS
VL: DVVMTQSPLSLPVSLGNQASISCRSSQSLVHSNGNTYLHWYLQKPGQSPKLLIYKVSNRFSGVPDRFSGSGSGTDFSLKISRVEAEDLGVYFCSQSTLVPLTFGAGTKLELK
With B1 the EC50 [1] was 0.48 nM, the Ka [2] was 7.19e+08 M⁻¹ and the Kd [2] was 1.39 nM. For the same binder, the koff [2] was 0.000462 s⁻¹, the kon [2] was 332000 M⁻¹ s⁻¹ and the Ka [3] was 8.1e+08 M⁻¹. The Kd [3] was 1.2 nM, the koff [3] was 0.00035 s⁻¹ and the kon [3] was 290000 M⁻¹ s⁻¹. It also gave a Ka [4] of 5.4e+08 M⁻¹, a Kd [4] of 1.8 nM and a koff [4] of 0.00038 s⁻¹. It also gave a kon [4] of 210000 M⁻¹ s⁻¹, a Ka [5] of 4.79e+08 M⁻¹ and a Kd [5] of 2.09 nM. It also gave a koff [5] of 0.000598 s⁻¹, a kon [5] of 286000 M⁻¹ s⁻¹ and an IC50 [6] of 0.503 nM. It also gave a Ka [7] of 1.4e+09 M⁻¹, a Kd [7] of 0.7 nM and a koff [7] of 0.00045 s⁻¹. It also gave a kon [7] of 640000 M⁻¹ s⁻¹.

B2: MAb 7H3 (antibody, V domains shown)
VH: EVKLEESGGGLVQPGGSMKLSCVASGFTFSDAWMDWVRQSPEKGLEWVAGIRNRANNHATYYVASVKGRFTVSRDDSKSSVYLQMNSLRAEDAGIYYCTRGDGYFFDYWGQGTTLTVSS
VL: DVVLTQTPLSLSVSLGDQASISCRSGQSLVHSNGNTYLHWYLQKPGQSSKLLIYKVSNRLSGVPDRFSGSGSGTDFTLKISRVEAEDLGVYFCSQTTHVPPTFGGGTKLEIK
notes: Mouse monoclonal antibody from a hybridoma (ECACC 06081802); also called 7H3-N9
With B2 the IC50 [8] was 0.275 nM, the binding result [9] was “binds” and the Ka [7] was 5.97e+07 M⁻¹. For the same binder, the Kd [7] was 16.7 nM, the koff [7] was 0.00995 s⁻¹ and the kon [7] was 595000 M⁻¹ s⁻¹.

B3: MAb 3C5 (antibody, V domains shown)
VH: DVQLQESGPGLVKPSQSLSLTCSVTGYSITSGNYWNWIRQFPGKKLEWMGHISYDGNNKYNPSLKNRISITRDTSKNQFFLRLNSVTAEDTAAYYCALFYFDYASFTYWGQGTLVTVSA
VL: B1 VL with S7T, N17D, Q43R, S77T, L98H, L101P
In the case of B3, the IC50 [10] is reported as 0.171 nM, the Ka [3] is reported as 2.2e+09 M⁻¹ and the Kd [3] is reported as 0.45 nM. The koff [3] was 0.0007 s⁻¹, the kon [3] was 1.5e+06 M⁻¹ s⁻¹ and the Ka [4] was 1.3e+09 M⁻¹. It also gave a Kd [4] of 0.76 nM, a koff [4] of 0.00052 s⁻¹ and a kon [4] of 680000 M⁻¹ s⁻¹. For the same binder, the EC50 [11] was 0.021 nM, the Ka [12] was 7.16e+08 M⁻¹ and the Kd [12] was 1.4 nM. For the same binder, the koff [12] was 0.00144 s⁻¹, the kon [12] was 1.03e+06 M⁻¹ s⁻¹ and the Ka [13] was 9.6e+08 M⁻¹. The Kd [13] was 1.04 nM, the koff [13] was 0.00111 s⁻¹ and the kon [13] was 1.06e+06 M⁻¹ s⁻¹. The “fold improved affinity over 7F3” value [14] was about 1.5 fold, the Ka [7] was 2.1e+09 M⁻¹ and the Kd [7] was 0.48 nM. It also gave a koff [7] of 0.0016 s⁻¹ and a kon [7] of 3.3e+06 M⁻¹ s⁻¹.

B4: MAb 8G7 (antibody, V domains shown)
VH: DIQLQESGPGLVKPSQSLSLTCSVTGYSITSGHYWNWIRQLPGNKMEWMGHISNDGSNRYNPSLKNRISITRDTSKNQFFLKLNSVTTEDTATYYCALFYFAYASFAYWGQGTLVTVSA
VL: DVVMTQTPLSLPVSLGDQASISCRSSQSLLHSNGNTYLHWYLQKPGQSPKLLIYKVSTRFSGVPDRFSGSGSGADFTLQISRVEAEDLGVYLCSQSTHVPPTFGAGTKLVLT
notes: Mouse monoclonal antibody from a hybridoma (ECACC 06081803); also called 8G7-M6
For B4, the IC50 [8] was 0.214 nM, the binding result [9] was “binds” and the Ka [7] was 6.3e+08 M⁻¹. It also gave a Kd [7] of 1.6 nM, a koff [7] of 0.0059 s⁻¹ and a kon [7] of 3.7e+06 M⁻¹ s⁻¹.
